From patent EP0651797B1
Blank lines part the entries; values can stand above or below the substance they belong to.

What was measured:
[1] = target: LeuM3 on cells of tonsillar B cell preparations (human) (UniProt P08571); assay: FACS staining of highly enriched tonsillar B cells
[2] = target: human CD40 on cells (human) (UniProt P25942); assay: FACS staining of highly enriched tonsillar B cells
[3] = target: CD3 on cells of tonsillar B cell preparations (human) (UniProt P07766); assay: FACS staining of highly enriched tonsillar B cells, Donor 1
[4] = target: CD3 on cells of tonsillar B cell preparations (human) (UniProt P07766); assay: FACS staining of highly enriched tonsillar B cells, Donor 2
[5] = target: CD3 on cells of tonsillar B cell preparations (human) (UniProt P07766); assay: FACS staining of highly enriched tonsillar B cells
[6] = target: human B7 antigen on cells (human) (UniProt P33681); assay: FACS staining of highly enriched tonsillar B cells, Donor 1
UniProt P33681, sequence (P33681 35-288): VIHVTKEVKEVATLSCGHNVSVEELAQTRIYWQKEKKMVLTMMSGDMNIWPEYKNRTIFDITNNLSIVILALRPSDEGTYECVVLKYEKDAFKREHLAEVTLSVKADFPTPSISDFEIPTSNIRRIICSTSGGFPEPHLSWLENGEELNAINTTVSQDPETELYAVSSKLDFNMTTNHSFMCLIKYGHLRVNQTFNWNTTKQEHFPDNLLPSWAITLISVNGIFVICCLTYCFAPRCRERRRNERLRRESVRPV

[7] = target: human B7 antigen on cells (human) (UniProt P33681); assay: FACS of tonsillar B cells cultured for 5 days with immobilized anti-(IgM) antibodies and IL-2
[8] = target: human B7 antigen on cells (human) (UniProt P33681); assay: FACS staining of highly enriched tonsillar B cells, Donor 2
[9] = target: human B7 antigen on cells (human) (UniProt P33681); assay: cell-based or functional assay

UniProt P25942, sequence (P25942 21-277): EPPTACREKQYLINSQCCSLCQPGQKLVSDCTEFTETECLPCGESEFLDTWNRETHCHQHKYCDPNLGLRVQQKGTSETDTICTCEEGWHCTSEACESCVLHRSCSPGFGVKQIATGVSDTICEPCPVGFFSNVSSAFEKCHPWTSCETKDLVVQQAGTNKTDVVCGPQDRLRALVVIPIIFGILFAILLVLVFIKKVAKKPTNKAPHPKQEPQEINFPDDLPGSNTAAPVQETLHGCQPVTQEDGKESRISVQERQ
UniProt P08571, sequence (P08571 20-345): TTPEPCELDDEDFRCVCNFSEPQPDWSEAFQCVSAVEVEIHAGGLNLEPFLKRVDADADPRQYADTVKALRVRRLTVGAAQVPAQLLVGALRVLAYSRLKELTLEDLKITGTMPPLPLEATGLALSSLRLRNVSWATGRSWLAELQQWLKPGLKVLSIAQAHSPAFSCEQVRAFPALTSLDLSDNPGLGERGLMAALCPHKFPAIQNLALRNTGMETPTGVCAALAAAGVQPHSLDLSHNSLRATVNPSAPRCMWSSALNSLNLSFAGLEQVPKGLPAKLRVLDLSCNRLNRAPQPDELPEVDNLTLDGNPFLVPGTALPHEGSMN

- % of Positive Cells [1]: 2.5%
Substance: anti-(LeuM3) monoclonal antibody

- % of Positive Cells [2]: 92.1%
Substance: anti-(CD40) monoclonal antibody G28.5

- % of Positive Cells [3]: 8%
- % of Positive Cells [4]: 2.1%
- % of Positive Cells [5]: 2.1%
Substance: anti-(CD3) monoclonal antibody OKT3

- % of Positive Cells [6]: 12.6%
- percentage of cells positive [7]: 25 percent
- % of Positive Cells [8]: 16.8%
- T-cell proliferation in a secondary MLC; B7-24 0.025 µg/ml, CsA 3 x 10^-7 M (CPM (by the footnote)) [9]: 6
- T-cell proliferation in a secondary MLC; B7-24 0.025 µg/ml, CsA 6 x 10^-7 M (CPM (by the footnote)) [9]: 6
- T-cell proliferation in a secondary MLC; B7-24 0.025 µg/ml, CsA 10^-7 M (CPM (by the footnote)) [9]: 6
- T-cell proliferation in a secondary MLC; B7-24 0.025 µg/ml, no CsA (CPM (by the footnote)) [9]: 47
- T-cell proliferation in a secondary MLC; B7-24 0.25 µg/ml, CsA 3 x 10^-7 M (CPM (by the footnote)) [9]: 2
- T-cell proliferation in a secondary MLC; B7-24 0.25 µg/ml, CsA 6 x 10^-7 M (CPM (by the footnote)) [9]: 3
- T-cell proliferation in a secondary MLC; B7-24 0.25 µg/ml, CsA 10^-7 M (CPM (by the footnote)) [9]: 3
- T-cell proliferation in a secondary MLC; B7-24 0.25 µg/ml, no CsA (CPM (by the footnote)) [9]: 33
- T-cell proliferation in a secondary MLC; B7-24 2.5 µg/ml, CsA 3 x 10^-7 M (CPM (by the footnote)) [9]: 3
- T-cell proliferation in a secondary MLC; B7-24 2.5 µg/ml, CsA 6 x 10^-7 M (CPM (by the footnote)) [9]: 3
- T-cell proliferation in a secondary MLC; B7-24 2.5 µg/ml, CsA 10^-7 M (CPM (by the footnote)) [9]: 3
- T-cell proliferation in a secondary MLC; B7-24 2.5 µg/ml, no CsA (CPM (by the footnote)) [9]: 40
- T-cell proliferation in secondary MLC; B7-24 0.025 µg/ml, CsA 3 x 10^-6M [9]: 939 CPM
- T-cell proliferation in secondary MLC; B7-24 0.025 µg/ml, CsA 3 x 10^-7M [9]: 1570 CPM
- T-cell proliferation in secondary MLC; B7-24 0.025 µg/ml, CsA 6 x 10^-6M [9]: 897 CPM
- T-cell proliferation in secondary MLC; B7-24 0.025 µg/ml, CsA 6 x 10^-7M [9]: 1590 CPM
- T-cell proliferation in secondary MLC; B7-24 0.025 µg/ml, CsA 10^-7M [9]: 2820 CPM
- T-cell proliferation in secondary MLC; B7-24 0.025 µg/ml, no CsA [9]: 29400 CPM
- T-cell proliferation in secondary MLC; B7-24 0.25 µg/ml, CsA 3 x 10^-6M [9]: 545 CPM
- T-cell proliferation in secondary MLC; B7-24 0.25 µg/ml, CsA 3 x 10^-7M [9]: 559 CPM
- T-cell proliferation in secondary MLC; B7-24 0.25 µg/ml, CsA 6 x 10^-6M [9]: 553 CPM
- T-cell proliferation in secondary MLC; B7-24 0.25 µg/ml, CsA 6 x 10^-7M [9]: 788 CPM
- T-cell proliferation in secondary MLC; B7-24 0.25 µg/ml, CsA 10^-6M [9]: 601 CPM
- T-cell proliferation in secondary MLC; B7-24 0.25 µg/ml, CsA 10^-7M [9]: 882 CPM
- T-cell proliferation in secondary MLC; B7-24 0.25 µg/ml, no CsA [9]: 20800 CPM
- T-cell proliferation in secondary MLC; B7-24 2.5 µg/ml, CsA 3 x 10^-6M [9]: 609 CPM
- T-cell proliferation in secondary MLC; B7-24 2.5 µg/ml, CsA 3 x 10^-7M [9]: 697 CPM
- T-cell proliferation in secondary MLC; B7-24 2.5 µg/ml, CsA 6 x 10^-6M [9]: 971 CPM
- T-cell proliferation in secondary MLC; B7-24 2.5 µg/ml, CsA 6 x 10^-7M [9]: 790 CPM
- T-cell proliferation in secondary MLC; B7-24 2.5 µg/ml, CsA 10^-6M [9]: 601 CPM
- T-cell proliferation in secondary MLC; B7-24 2.5 µg/ml, CsA 10^-7M [9]: 1160 CPM
- T-cell proliferation in secondary MLC; B7-24 2.5 µg/ml, no CsA [9]: 25200 CPM
Substance: anti-B7 monoclonal antibody B7-24
